Where no end group is shown, it is not given here.
T1: Selection peptide KAGGFAPYYG (human)
T1 construct: Synthetic monomeric peptide (Genscript); also called human selection peptide
T1 peptide: KAGGFAPYYG

T2: Elongated peptide KAGGFAPYYGD
T2 peptide: KAGGFAPYYGD

T3: Truncated peptide KAGGFAPYY
T3 peptide: KAGGFAPYY

T4: Dimeric elongated peptide CKAGGFAPYYGD x CKAGGFAPYYGD (also: homodimer linked by Cys1 disulphide, disulfide at 1, other end not in the chain)
T4 peptide: CKAGGFAPYYGD

T5: Dimeric truncated peptide CKAGGFAPYY x CKAGGFAPYY (also: homodimer linked by Cys1 disulphide, disulfide at 1, other end not in the chain)
T5 peptide: CKAGGFAPYY

T6: Dimeric selection peptide CKAGGFAPYYG x CKAGGFAPYYG (human, also: homodimer linked by Cys1 disulphide, disulfide at 1, other end not in the chain)
T6 construct: Synthetic dimer of two identical strands; standard of the sandwich ELISA; also called dimeric human selection peptide
T6 peptide: CKAGGFAPYYG

T7: Rat dimeric peptide CKSGGFSPYYG x CKSGGFSPYYG (rat, also: homodimer cross-linked by disulphide N-terminal to antibody binding site, disulfide at 1, other end not in the chain)
T7 construct: also called dimeric rat peptide; rat selection peptide
T7 peptide: CKSGGFSPYYG


How the values were obtained:
[1] = target: T8, dimeric truncated peptide (CKAGGFAPYY×CKAGGFAPYY (SEQ ID NO: 18)) (Homo sapiens, UniProt P02461); assay: Direct sandwich ELISA specificity towards dimeric peptides; format: binding; settings: NBH-242 as capture and detection antibody, FIG. 3
T8 construct: purchased Genscript, Piscataway, NJ, USA; host or cells: synthetic peptide
Method: (§1) 96-well plates precoated with streptavidin (Roche Diagnostic's, Hvidovre, Denmark, cat. No. 11940279) were coated with 100 μL of the biotinylated antibody targeting the CTX-III fragment diluted 1+100 in assay buffer (50 mM PBS, 1% BSA, 1% Tween-20, 150 mM NaCl, pH 7.4) for 30 minutes at room temperature rotating at 300 rounds-per-minute (rpm). Unbound biotinylated capture antibody was discarded, and the wells were washed with washing buffer (25 mM TRIZMA, 50 mM NaCl, 0.036% Bronidox L5, 0.1% Tween 20) using a standardized ELISA plate washing machine (BioTek® Instruments, Microplate washer, ELx405 Select CW, Winooski, USA). All samples and the detection antibody were diluted in incubation buffer (50 mM PBS, 1% BSA, 1% Tween-20, 150 mM NaCl, 5% Liquid II, pH 7.4), with the detection antibody being diluted 1+100. 20 μL of sample material and controls were incubated with 100 μL HRP labelled detection antibody targeting the CTX-III fragment, at 4° C. for 20 hours and agitated at 300 rpm. […] Finally, the luminescence emitted was quantified with an ELISA reader (VersaMAX; Molecular Devices, Wokingham Berkshire, UK) set to measure the luminescence at 450 nm and 650 nm. […]
(§2) The lower limit of detection (LLOD) was determined from 21 zero samples (i.e. incubation buffer) and calculated as the mean+3× standard deviation, whereas the upper limit of detection (ULOD) was determined from 10 measurements of the dimeric selection peptide calculated as the mean+3× standard deviation. The inter- and intra-assay variation was determined by 10 independent runs of five quality control (QC) samples with minimum three of these being healthy human plasma EDTA samples (Valley Biomedical, Winchester, VA, USA), with each run consisting of double determinations of the samples. […] Assay linearity was determined by calculating the percentage recovery (100%±20%) of a 1:6-fold dilution of healthy human plasma EDTA samples with a significant concentration, using the undiluted sample as reference. […] Subsequently, the percentage recovery between the control sample and the low or high interferent samples were calculated.

[2] = target: T9, Rat dimeric peptide (CKSGGFSPYYG×CKSGGFSPYYG) (Rattus norvegicus, UniProt P13941); assay: as above; format: binding; settings: NBH-242 as capture and detection antibody, FIG. 3
T9 construct: purchased Genscript, Piscataway, NJ, USA; host or cells: synthetic peptide
Method: as §1, §2

[3] = target: T10, dimeric elongated peptide (CKAGGFAPYYGD×CKAGGFAPYYGD (SEQ ID NO: 17)) (Homo sapiens, UniProt P02461); assay: as above; format: binding; settings: NBH-242 as capture and detection antibody, FIG. 3
T10 construct: purchased Genscript, Piscataway, NJ, USA; host or cells: synthetic peptide
Method: as §1, §2

[4] = target: T1, Selection peptide KAGGFAPYYG; assay: indirect competitive ELISA, selection peptide competing with coated biotin-KAGGFAPYYG
[5] = target: T2, Elongated peptide KAGGFAPYYGD; assay: indirect competitive ELISA (final inhibition)
[6] = target: T3, Truncated peptide KAGGFAPYY; assay: indirect competitive ELISA (final inhibition)
[7] = target: T4, Dimeric elongated peptide CKAGGFAPYYGD …; assay: direct sandwich ELISA, NBH-242 as capture and detection antibody
Method: (§3) Unbound primary antibody and sample was discarded, and the wells were washed with washing buffer. Subsequently, 100 μL chemiluminescence substrate was added to the wells, plates were incubated for 3 minutes at 20° C. in the dark rotating 300 rpm. Finally, the luminescence emitted was quantified with an ELISA reader (VersaMAX; Molecular Devices, Wokingham Berkshire, UK) set to measure the luminescence at 450 nm and 650 nm. […] Unknown sample measurements were interpolated with the standard curve to obtain the concentration (ng/mL) of the CTX-III fragment.
(§4) By plotting the calculated percentage recovery, the specificity of the antibodies in the direct sandwich ELISA towards the dimeric peptides was tested.

[8] = target: T5, Dimeric truncated peptide CKAGGFAPYY x …; assay: as above
Method: as §3, §4

[9] = target: T6, Dimeric selection peptide CKAGGFAPYYG x …; assay: as above
Method: as §3, §4

[10] = target: T7, Rat dimeric peptide CKSGGFSPYYG x …; assay: as above
Method: as §3, §4

Molecule | reactivity towards the dimeric truncated peptide [1] | reactivity towards the dimeric rat peptide [2] | reactivity towards the dimeric elongated peptide [3] | binding result [4] | binding result [5] | binding result [6] | binding result [7] | binding result [8] | binding result [9] | binding result [10]
NBH-242: neo-epitope specific antibody directed towards the C-terminal neo-epitope in the C-terminal telopeptide of type III collagen (CT-III), …-COOH (antibody) heavy: QVQLQQSGAELVRPGVSVKISCKGSGHTFTDHGMHWVKQSQAKSLEWIGVISTYYGDATYNQKFKGKATMTVDKSSSTAYMELARLTSEDSAIYYCARSMGGNYVGTGFAYWGQGTLVTVSAAKTTAPSVYPLAPVCGDTTGSSVTLGCLVKGYFPEPVTLTWNSGSLSSGVHTFPAVLQSDLYTLSSSVTVTSSTWPSQSITCNVAHPASSTKVDKKIEPRGPTIKPCPPCKCPAPNLLGGPSVFIFPPKIKDVLMISLSPIVTCVVVDVSEDDPDVQISWFVNNVEVHTAQTQTHREDYNSTLRVVSALPIQHQDWMSGKEFKCKVNNKDLPAPIERTISKPKGSVRAPQVYVLPPPEEEMTKKQVTLTCMVTDFMPEDIYVEWTNNGKTELNYKNTEPVLDSDGSYFMYSKLRVEKKNWVERNSYSCSVVHEGLHNHHTTKSFSRTPGK light: DIVMTQAAPSVPVTPGESVSISCRSSKSLLHSNGNTYLYWFLQRPGQSPQLLIYRMSNLASGVPDRFSGSGSGTAFTLRISRVEAEDVGVYYCMQHLEFPLTFGAGTKLELKRADAAPTVSIFPPSSEQLTSGGASVVCFLNNFYPKDINVKWKIDGSERQNGVLNSWTDQDSKDSTYSMSSTLTLTKDEYERHNSYTCEATHKTSTSPIVKSFNRNE | no reactivity | no reactivity | no reactivity |  |  |  |  |  |  | 
monoclonal antibody NBH-242 (antibody, mouse IgG2a, kappa, V domains shown, In the sandwich ELISA the antibody was biotinylated (capture) and HRP-labelled (detection); also called monoclonal NBH-242 antibody; capture antibody) VH: QVQLQQSGAELVRPGVSVKISCKGSGHTFTDHGMHWVKQSQAKSLEWIGVISTYYGDATYNQKFKGKATMTVDKSSSTAYMELARLTSEDSAIYYCARSMGGNYVGTGFAYWGQGTLVTVSA VL: DIVMTQAAPSVPVTPGESVSISCRSSKSLLHSNGNTYLYWFLQRPGQSPQLLIYRMSNLASGVPDRFSGSGSGTAFTLRISRVEAEDVGVYYCMQHLEFPLTFGAGTKLELKR |  |  |  | binds | no binding | no binding | no binding | no binding | binds | no binding

Reference: patent US20240003906A1, “Biomarker of Fibrosis” (Nordic Bioscience A/S, priority 2020, published 2024)
